Data: US20070293656A1, “COLLAGEN BINDING PEPTIDES” (Epix Pharmaceuticals, Inc., priority 2005, published 2007)
Bridge positions count the residues as written; N and C are the ends. Square brackets hold non-standard residues; d marks the D form. Primed or numbered codes have the meaning given here. Side chains are listed from the residue outwards. Ends that are not written are not given here. * marks the point of attachment. Glu‑DTPA‑Gd = N-terminal Glu-DTPA-Gd chelate (gadolinium DTPA complex on glutamic acid); Tyr(3-I) = N[C@@H](Cc1ccc(O)c(I)c1)C(=O)O; Glu‑DTPA‑Gd‑PEG(2O) = not defined here; Gd^T = not defined here; Gd^T″ = GdDTPA-thiourea; Cbz = O=C(OCc1ccccc1)*; AEEA = NCCOCCOCC(=O)O

Legend:
[1] = target: T1, human collagen type I (Homo sapiens, UniProt P02452+P08123); assay: Dried collagen assay (DCA): percent binding to dried human collagen; settings: 5 μM peptide in PBS, pH 7.4, 2 hours at room temperature
T1 construct: Acid soluble human collagen extracted from placenta; purchased Sigma C7774 (lot #083K375); host or cells: human placenta
Protocol: Acid soluble human collagen extracted from placenta (Sigma, cat #C7774, lot #083K375) is dissolved in 15 mM HCl (3.5 mg/ml) by vortexing and gently shaking for 3-4 hours at 4° C. The acid soluble collagen is […] against PBS, pH 7.4 (three buffer exchanges are used). The […] protein concentration is determined by the BCA method (Pierce, Cat #23225) using bovine collagen (Vitrogen, cat #FXP-019) as a reference standard. Percent gelation (fibril formation) of the collagen is determined by incubating 10 μM collagen (3.3 mg/ml) at 37° C. for 6 hours. A typical percent gelation is 60%.
(§1) An additional 90 μL is reserved in a HPLC glass vial as a measure of the total concentration.

[2] = target: T2, rat collagen type I (Rattus norvegicus, UniProt P02454+P02466); assay: Dried collagen assay (DCA): percent binding to dried rat collagen; settings: 5 μM peptide in PBS, pH 7.4, 2 hours at room temperature
T2 construct: Rat collagen (acid soluble, type I, rat tail); purchased Upstate USA, Inc 08-115; host or cells: rat tail
Protocol: Rat collagen (acid soluble, type I, rat tail, Upstate USA, Inc, cat #08-115) is dialyzed against 10 mM Phosphate (NaH2PO4), pH 4.2 with three changes of the dialysis buffer. For the final assay, a 1:10 volume of 10×PBS (100 mM NaH2PO4, 1.5 M NaCl pH 7.4) is added to the collagen solution (final 1×PBS) and incubated at 37° C. for 2 hours. The gelation is typically 90%.
as §1

[3] = target: human collagen type I (acid soluble, extracted from placenta, Sigma C7774) (human) (UniProt P02452); assay: dried collagen assay
[4] = target: rat collagen (acid soluble, type I, rat tail, Upstate 08-115) (rat) (UniProt P02454); assay: dried collagen assay
[5] = target: T3, human collagen type I (acid soluble, extracted from placenta, Sigma C7774) (human, UniProt P02452 162-1218; P08123 80-1119); assay: dried collagen assay
T3 construct: gelled and dried as a fibril film in the assay; also called dried human collagen; h-Collagen
Protocol: as §1

rat collagen (acid soluble, type I, rat tail, Upstate 08-115) (rat), sequence (P02454 152-1207 limits assumed, chain 1 of 2): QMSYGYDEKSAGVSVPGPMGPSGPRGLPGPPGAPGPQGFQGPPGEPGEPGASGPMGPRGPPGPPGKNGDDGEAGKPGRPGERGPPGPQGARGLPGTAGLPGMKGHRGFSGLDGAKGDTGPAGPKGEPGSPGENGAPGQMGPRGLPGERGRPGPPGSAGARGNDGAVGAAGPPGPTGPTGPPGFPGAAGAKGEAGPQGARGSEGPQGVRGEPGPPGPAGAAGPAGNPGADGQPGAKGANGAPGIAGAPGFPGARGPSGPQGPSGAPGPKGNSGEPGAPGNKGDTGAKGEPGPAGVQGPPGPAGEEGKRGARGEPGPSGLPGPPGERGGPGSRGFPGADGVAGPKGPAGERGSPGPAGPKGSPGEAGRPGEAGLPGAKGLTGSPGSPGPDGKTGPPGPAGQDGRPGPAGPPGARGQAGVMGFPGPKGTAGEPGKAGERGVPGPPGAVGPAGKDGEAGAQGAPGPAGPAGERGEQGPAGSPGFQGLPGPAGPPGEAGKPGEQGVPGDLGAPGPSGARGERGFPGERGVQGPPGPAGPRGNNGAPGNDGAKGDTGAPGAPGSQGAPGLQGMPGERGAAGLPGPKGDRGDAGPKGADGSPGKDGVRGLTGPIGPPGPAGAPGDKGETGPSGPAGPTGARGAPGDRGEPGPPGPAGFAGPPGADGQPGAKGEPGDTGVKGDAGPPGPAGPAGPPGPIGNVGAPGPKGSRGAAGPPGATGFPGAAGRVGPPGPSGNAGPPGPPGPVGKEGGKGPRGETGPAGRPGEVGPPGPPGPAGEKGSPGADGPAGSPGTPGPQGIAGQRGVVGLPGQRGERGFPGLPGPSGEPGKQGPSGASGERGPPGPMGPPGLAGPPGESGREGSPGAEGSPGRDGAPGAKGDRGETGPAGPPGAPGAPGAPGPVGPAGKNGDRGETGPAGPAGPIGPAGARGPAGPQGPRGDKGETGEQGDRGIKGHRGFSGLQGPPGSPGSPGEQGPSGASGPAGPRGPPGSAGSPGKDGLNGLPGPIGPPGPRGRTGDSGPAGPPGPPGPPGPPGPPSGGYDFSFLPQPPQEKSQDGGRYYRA
rat collagen (acid soluble, type I, rat tail, Upstate 08-115) (rat), sequence (P02466 86-1125 limits assumed, chain 2 of 2, further chain): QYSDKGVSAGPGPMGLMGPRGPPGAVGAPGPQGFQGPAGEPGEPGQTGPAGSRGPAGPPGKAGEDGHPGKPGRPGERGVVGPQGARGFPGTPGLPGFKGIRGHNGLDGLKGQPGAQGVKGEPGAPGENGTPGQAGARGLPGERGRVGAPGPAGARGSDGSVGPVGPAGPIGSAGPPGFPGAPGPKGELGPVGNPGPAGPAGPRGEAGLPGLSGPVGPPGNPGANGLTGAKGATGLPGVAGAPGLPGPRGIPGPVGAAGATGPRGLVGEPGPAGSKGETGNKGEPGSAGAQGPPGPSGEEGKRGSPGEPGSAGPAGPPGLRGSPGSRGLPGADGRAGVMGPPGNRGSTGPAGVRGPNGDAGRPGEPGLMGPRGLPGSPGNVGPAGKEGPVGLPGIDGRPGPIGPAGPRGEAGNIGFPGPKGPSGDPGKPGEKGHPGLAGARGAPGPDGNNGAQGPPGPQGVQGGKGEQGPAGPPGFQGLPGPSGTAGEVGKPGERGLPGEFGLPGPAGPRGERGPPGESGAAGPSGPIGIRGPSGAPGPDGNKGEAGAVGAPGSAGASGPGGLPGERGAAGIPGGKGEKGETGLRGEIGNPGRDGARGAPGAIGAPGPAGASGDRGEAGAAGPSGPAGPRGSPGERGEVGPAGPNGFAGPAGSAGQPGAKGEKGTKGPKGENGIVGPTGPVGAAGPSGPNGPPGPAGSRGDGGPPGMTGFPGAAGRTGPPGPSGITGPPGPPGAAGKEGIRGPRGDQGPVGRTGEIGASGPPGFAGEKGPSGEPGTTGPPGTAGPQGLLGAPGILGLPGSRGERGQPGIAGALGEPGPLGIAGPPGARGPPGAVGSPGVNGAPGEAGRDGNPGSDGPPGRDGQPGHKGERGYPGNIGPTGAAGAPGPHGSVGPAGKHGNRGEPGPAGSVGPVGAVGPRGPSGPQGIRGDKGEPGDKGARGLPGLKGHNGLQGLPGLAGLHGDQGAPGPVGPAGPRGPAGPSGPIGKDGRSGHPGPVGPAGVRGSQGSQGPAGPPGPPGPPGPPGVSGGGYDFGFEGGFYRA
T1 sequence (P02452 162-1218 limits assumed): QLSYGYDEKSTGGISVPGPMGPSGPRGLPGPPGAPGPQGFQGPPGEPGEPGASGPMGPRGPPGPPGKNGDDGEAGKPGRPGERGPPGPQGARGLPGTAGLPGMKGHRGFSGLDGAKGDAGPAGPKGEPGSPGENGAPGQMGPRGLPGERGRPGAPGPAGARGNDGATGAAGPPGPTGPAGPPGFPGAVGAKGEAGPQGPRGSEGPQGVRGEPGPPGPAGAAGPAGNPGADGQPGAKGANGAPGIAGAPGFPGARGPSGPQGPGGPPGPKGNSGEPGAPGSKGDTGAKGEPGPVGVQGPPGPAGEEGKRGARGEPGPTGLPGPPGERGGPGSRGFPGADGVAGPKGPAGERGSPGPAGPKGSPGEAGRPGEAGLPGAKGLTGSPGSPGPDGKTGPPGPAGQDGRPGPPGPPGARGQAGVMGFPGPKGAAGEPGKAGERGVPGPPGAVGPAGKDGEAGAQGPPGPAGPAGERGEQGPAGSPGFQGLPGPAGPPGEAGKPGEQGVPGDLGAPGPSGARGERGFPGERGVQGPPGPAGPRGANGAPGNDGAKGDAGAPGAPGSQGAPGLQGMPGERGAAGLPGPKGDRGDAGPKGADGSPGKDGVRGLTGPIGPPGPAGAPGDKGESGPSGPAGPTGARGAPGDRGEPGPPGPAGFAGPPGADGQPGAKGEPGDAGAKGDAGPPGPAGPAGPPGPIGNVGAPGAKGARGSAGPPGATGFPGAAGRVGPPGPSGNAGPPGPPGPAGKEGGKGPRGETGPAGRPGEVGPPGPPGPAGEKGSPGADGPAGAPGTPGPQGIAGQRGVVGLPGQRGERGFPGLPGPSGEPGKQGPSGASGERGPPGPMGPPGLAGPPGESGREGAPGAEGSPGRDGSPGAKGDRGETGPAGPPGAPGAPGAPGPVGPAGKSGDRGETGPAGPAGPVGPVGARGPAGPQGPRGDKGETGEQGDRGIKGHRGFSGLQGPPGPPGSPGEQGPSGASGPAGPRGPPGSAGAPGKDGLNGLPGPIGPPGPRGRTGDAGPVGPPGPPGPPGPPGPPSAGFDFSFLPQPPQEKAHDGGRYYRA
T1 sequence (P08123 80-1119 limits assumed): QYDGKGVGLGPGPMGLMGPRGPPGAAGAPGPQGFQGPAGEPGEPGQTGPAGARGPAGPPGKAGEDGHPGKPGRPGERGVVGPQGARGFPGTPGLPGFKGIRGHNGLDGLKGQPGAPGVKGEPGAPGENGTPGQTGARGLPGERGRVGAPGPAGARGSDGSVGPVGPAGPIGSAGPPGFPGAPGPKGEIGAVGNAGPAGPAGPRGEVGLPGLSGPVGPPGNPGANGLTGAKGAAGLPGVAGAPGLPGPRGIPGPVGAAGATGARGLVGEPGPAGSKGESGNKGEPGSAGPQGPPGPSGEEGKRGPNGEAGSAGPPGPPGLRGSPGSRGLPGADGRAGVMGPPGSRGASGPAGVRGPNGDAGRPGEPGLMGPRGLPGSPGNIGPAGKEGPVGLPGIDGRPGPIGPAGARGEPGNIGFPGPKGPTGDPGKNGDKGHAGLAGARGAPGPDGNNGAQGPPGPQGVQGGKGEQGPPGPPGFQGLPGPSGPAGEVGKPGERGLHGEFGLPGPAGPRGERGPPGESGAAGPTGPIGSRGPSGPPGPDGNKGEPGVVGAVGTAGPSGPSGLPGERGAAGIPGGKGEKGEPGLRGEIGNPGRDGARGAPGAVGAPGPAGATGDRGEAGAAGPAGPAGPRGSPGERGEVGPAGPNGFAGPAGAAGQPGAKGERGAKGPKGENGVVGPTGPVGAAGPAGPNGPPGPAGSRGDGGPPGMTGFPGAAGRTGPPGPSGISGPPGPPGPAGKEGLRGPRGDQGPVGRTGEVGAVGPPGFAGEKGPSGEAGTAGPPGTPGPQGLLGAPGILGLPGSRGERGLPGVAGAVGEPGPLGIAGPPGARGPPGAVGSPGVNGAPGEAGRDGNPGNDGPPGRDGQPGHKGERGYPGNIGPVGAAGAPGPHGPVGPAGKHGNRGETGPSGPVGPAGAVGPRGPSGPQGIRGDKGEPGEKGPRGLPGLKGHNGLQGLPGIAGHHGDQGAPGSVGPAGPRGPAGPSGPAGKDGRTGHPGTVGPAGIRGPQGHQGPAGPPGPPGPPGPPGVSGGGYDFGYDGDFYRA
human collagen type I (acid soluble, extracted from placenta, Sigma C7774) (human), sequence (P02452 162-1218 limits assumed, chain 1 of 2): as the sequence (P02452 162-1218 limits assumed) above
human collagen type I (acid soluble, extracted from placenta, Sigma C7774) (human), sequence (P08123 80-1119 limits assumed, chain 2 of 2, further chain): as the sequence (P08123 80-1119 limits assumed) above
T2 sequence (P02454 152-1207 limits assumed): as the sequence (P02454 152-1207 limits assumed, chain 1 of 2) above
T2 sequence (P02466 86-1125 limits assumed): as the sequence (P02466 86-1125 limits assumed, chain 2 of 2, further chain) above
T3 sequence (P02452 162-1218 limits assumed, chain 1 of 2): as the sequence (P02452 162-1218 limits assumed) above
T3 sequence (P08123 80-1119 limits assumed, chain 2 of 2): as the sequence (P08123 80-1119 limits assumed) above

| % bound [3] [%] | % bound [4] [%] | Molecule | further results |
| --- | --- | --- | --- |
|  |  | 38 (GWSCHGDAADWPCQWS) [compound 38] | Dried Human Collagen Binding [1]: 6% |
|  |  | 130 (WWACQKGRHDWEKCRWL; disulfide 4-14 (inferred)) [compound 130] | Dried Human Collagen Binding [1]: 32% |
|  |  | 39 (GWQCSGDASVWNCDWI) [compound 39] | Dried Human Collagen Binding [1]: 6% |
|  |  | 169 (QWTCSG[dD]EYTWHCNYE; disulfide 4-13 (inferred)) [compound 169] | % Collagen Binding Dried Rat [2]: 4% |
|  |  | 174 (QWTCSGDEYTW[dH]CNYE; disulfide 4-13 (inferred)) [compound 174] | % Collagen Binding Dried Human [1]: 5% |
|  |  | 147 (QWTCSGDEYTAHCNYE; disulfide 4-13 (inferred)) [compound 147] | % Collagen Binding Dried Human [1]: 5% |
|  |  | 113 (FSECVWVNAYQCEYF; disulfide 4-12 (inferred)) [compound 113] | Dried Human Collagen Binding [1]: 3% |
|  |  | 37 (LWNCHGTDANWKCVLN) [compound 37] | Dried Human Collagen Binding [1]: 7% |
|  |  | 3 (PWWCHEMPSMCFGF) [compound 3] | Dried Human Collagen Binding [1]: 2% |
|  |  | 159 (YHACYQAG[dC]WIW; disulfide 4-9 (inferred)) [compound 159] | % Collagen Binding Dried Human [1]: 7% |
|  |  | 112 (AKACSVHDEFGCLIS; disulfide 4-12 (inferred)) [compound 112] | Dried Human Collagen Binding [1]: 9% |
|  |  | 167 (QWT[dC]SGDEYTWHCNYE; disulfide 4-13 (inferred)) [compound 167] | % Collagen Binding Dried Human [1]: 4% |
|  |  | 65 (KWECVHTKGEWYCETK) [compound 65] | Dried Human Collagen Binding [1]: 7% |
|  |  | 36 (SWSCGGDHNAWKCQYS) [compound 36] | Dried Human Collagen Binding [1]: 7% |
|  |  | 2 (WGWCEWAQNNCWNY) [compound 2] | Dried Human Collagen Binding [1]: 14% |
| 8 | 2 | GQWHCTTDFPHHYCLYG (not fully specified; Gd^T-GQWHCTTD-F(4-CN)-PHHYCLYG) [Comp ID 883] |  |
| 6 |  | SWYCNNGSYGQWHCEHR (disulfide 4-14 (inferred)) [SEQ ID NO: 80] |  |
| 10 |  | ERNCVLNDFRWTCGGD (disulfide 4-13 (inferred)) [SEQ ID NO: 75] |  |
|  | 12 | {Glu‑DTPA‑Gd}-GGDWTCVGDHKTWKCNFH-NH2 (disulfide 6-15 (inferred)) [Compound ID 1023] |  |
| 6 | 1 | GQWHCTTLFPHHYCLYG (not fully specified; Gd^T-GQWHCTTLFPHHyCLYG) [Comp ID 907] |  |
| 26 | 11 | {Gd^T″}-GAWTCSGDEYTWHCNYE (disulfide 5-14 (inferred)) [Comp ID 830] |  |
| 12 | 4 | {Gd^T″}-GQWTCSGDEYAWHCNY[dE] (disulfide 5-14 (inferred)) [Comp ID 832] |  |
|  | 9 | DWTCSGDEYTWHCNYE (not fully specified; Gd^T-DWTCSGDEYTWHCNYE) [Comp ID 848] |  |
| 2 | 2 | GQWHCTTRFPHHFCLYG (not fully specified; Gd^T-GQWHCTTRFPHHfCLYG) [Comp ID 901] |  |
| 17 | 9 | {Gd^T}-DWTCS[dA]DEYTWHCNYE (disulfide 4-13 (inferred); not fully specified (C-terminus); printed as Gd^T-DWTCSaDEYTWHCNYE; reading uncertain) [Comp ID 835] |  |

| % bound [3] [%] | % bound [4] [%] | Molecule | further results |
| --- | --- | --- | --- |
| 5 |  | GWSCHSMDMQWHCDFS (disulfide 4-13 (inferred)) [SEQ ID NO: 67] |  |
| 12 |  | GWQCQGTDSLDWKCLYM (disulfide 4-14 (inferred)) [SEQ ID NO: 77] |  |
| 3 | 5 | GQWHCTTRFPHHXCLYG (not fully specified; Gd^T-GQWHCTTRFPHH-bip-CLYG) [Comp ID 903] |  |
|  | 9 | {Glu‑DTPA‑Gd}-WWGCRQGTGEHWSHCMWF-{AEEA-Glu‑DTPA‑Gd} (cysteine pairing not given here; also: Gd chelated by DTPA at each end) [SEQ ID NO: 195] |  |
| 13 | 4 | {Gd^T″}-GQWTCSGDEYTWACNYE (disulfide 5-14 (inferred)) [Comp ID 833] |  |
|  | 6 | YHACYQAGCYIW (disulfide 4-9 (inferred)) [SEQ ID NO: 107] | % bound [5]: 9% |
| 5 | 12 | YHACYQAGCYIY (disulfide 4-9 (inferred)) [SEQ ID NO: 108] |  |
|  | 11 | GQWTCSGDEYTWHCAYE (not fully specified; Gd^T-GQWTCSGDEYTWHCAYE) [Comp ID 839] |  |
|  | 5 | {Glu‑DTPA‑Gd‑PEG(2O)}-GQWTCSGDEYTWHCNY[dE]-NH2 (disulfide 5-14 (inferred); reading uncertain) [Compound ID 1026] |  |
| 5 |  | SWHCFLENHHWMCSDH (disulfide 4-13 (inferred)) [SEQ ID NO: 68] |  |
| 8 |  | TWACDLDEYGGWQCYTG (disulfide 4-14 (inferred)) [SEQ ID NO: 78] |  |
| 22 | 9 | {Gd^T″}-DWTCSGDEYYWHCNYE (disulfide 4-13 (inferred)) [Comp ID 834] |  |
| 8 |  | FWTCELDFRQSWYCYDK (disulfide 4-14 (inferred)) [SEQ ID NO: 79] |  |
| 13 | 8 | {Gd^T}-DWTCS[dS]DEYTWHCNYE (disulfide 4-13 (inferred); not fully specified (C-terminus); printed as Gd^T-DWTCSsDEYTWHCNYE; reading uncertain) [Comp ID 836] |  |
|  | 9 | {Gd^T}-DWTCSGDE[Tyr(3-I)]TWHCNYE (disulfide 4-13 (inferred); not fully specified (C-terminus); reading uncertain) [Comp ID 846] |  |
| 4 | 2 | GQWHCTTDFPHHYCLYG (not fully specified; Gd^T-GQWHCTTD-F(3,4-OMe)-PHHYCLYG) [Comp ID 893] |  |
| 6 |  | RWSCVLDADGWVCSDN (disulfide 4-13 (inferred)) [SEQ ID NO: 66] |  |
|  | 3 | GQWHCTTRFPHHXCLYG (not fully specified; Gd^T-GQWHCTTRFPHH-1-nal-CLYG) [Comp ID 904] |  |
| 23 | 9 | DWTCSGDEYTWYCNYE (not fully specified; Gd^T-DWTCSGDEYTWYCNYE) [Comp ID 842] |  |
|  | 8 | Cbz-GQWHCTK(Gd^T″)RFPHHYCLYG (disulfide 5-14 (inferred); not fully specified (C-terminus); printed as cbz-GQWHCT-K(Gd^T)-RFPHHYCLYG) [Comp ID 940] |  |
| 16 | 7 | {Gd^T}-DWTCS[dL]DEYTWHCNYE (disulfide 4-13 (inferred); not fully specified (C-terminus); reading uncertain) [Comp ID 847] |  |
| 15 | 3 | GQWACSGDEYTWHCNYE (not fully specified; Gd^T-GQWACSGDEYTWHCNYE) [Comp ID 840] |  |
|  | 10 | DWTCSGDEYRWHCNYE (not fully specified; Gd^T-DWTCSGDEYRWHCNYE) [Comp ID 845] |  |
|  | 8 | {Gd^T″}-GK([Gly-Gd^T″])WHCTTLFPHHVCLYG (disulfide 5-14 (inferred); not fully specified (C-terminus); printed as Gd^T-G-K(G.Gd^T)-WHCTTLFPHHVCLYG) [Comp ID 966] |  |
